This note sets out measurements from publication PMC9834408 (Nature Communications, 2023).

One may read the Kd as the equilibrium constant for the complex coming apart.

One test addresses T1, RBM15 SPOC R834A (human, UniProt Q96T37 775-960, R834A).
T1 construct: SPOC domain of human RBM15, residues 775-960, with R834A; not shown: His6, N-terminal, cleaved
T1 sequence (looked up): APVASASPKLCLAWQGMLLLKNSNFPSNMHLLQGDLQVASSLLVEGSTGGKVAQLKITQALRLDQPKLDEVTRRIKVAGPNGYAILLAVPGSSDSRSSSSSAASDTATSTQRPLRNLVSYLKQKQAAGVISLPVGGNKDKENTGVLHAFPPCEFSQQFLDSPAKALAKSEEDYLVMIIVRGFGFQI
In words: fluorescence polarisation; fluorescence anisotropy; 90 nM labelled peptide (Atto-488 on CTD peptides, FAM on NCoR and FMR1 peptides) titrated with increasing concentrations of SPOC domain; 20 °C; 25 mM Tris-Cl pH 7.4, 25 mM NaCl, 1 mM DTT; three independent dilution series. The following applies: both partners purified. For orientation: Fluorescence polarisation rises when a labelled molecule tumbles more slowly, as on binding a larger partner.

The target in test [1] is T2, SHARP SPOC (3496–3664 aa) (human, UniProt Q96T58 3496-3664).
T2 construct: SPOC domain of human SHARP (SMRT/HDAC1 associated repressor protein, also known as SPEN), residues 3496-3664; also called SPOC domain of SHARP; SPEN SPOC; not shown: His6, N-terminal, cleaved
The description is as above. The following applies: both partners purified.

Where no end group is shown, it is not given here. [ ]: non-standard residue; d: D form. FAM = FAM fluorescent label on the peptide N-terminus (the text does not expand the abbreviation); pS = N[C@@H](COP(=O)(O)O)C(=O)O

B1: WTAP peptide (first 19 N-terminal amino acids) phosphorylated at S14 (peptide, UniProt Q15007 1-19, looked up)
peptide: MTNEEPLPKKVRL[pS]ETDFK
notes: first 19 N-terminal amino acids of WTAP, with the LSETD motif; also called WTAP pS14
For the molecule B1, the Kd with RBM15 SPOC R834A was 50.4 ± 1.1 µM. In turn, {FAM}-REPAPLLSAQYETL[pS]DSDD (also: phosphoserine at S2436) [NCoR peptide phosphorylated at S2436] displayed a Kd in test [1] of 1.75 ± 0.04 µM. Still for that read-out and setting: in the case of {FAM}-REPAPLLSAQYETLSDSDD [unphosphorylated NCoR peptide] it was 13.6 ± 1.3 µM.

B2: 1×S5P CTD diheptapeptide (peptide)
peptide: {Atto‑488}-YSPT[pS]PSYSPTSPS
notes: also called 1×S5P CTD peptide; CTD pS5; source: lyophilized peptide, labeled with Atto-488 NHS ester, purified by reverse-phase HPLC
The molecule B2 displayed a Kd in test [1] of 23.8 ± 0.8 µM.
